Laboratory results taken from the DeepSol protein solubility set.

assay: soluble on expression in E. coli; label from the status in PepcDB or PDB records

Sequence	soluble on expression in E. coli
MQNQYFTVQENYKERFYQIPKVFFTSENYKNLTNDMKIAYAILRDRLNLSIKNSWVDEDGNIYFVYSNEKLMEILNCKKEKLTKIKKGLENDGLLIQKRRGLNKPNILYLMKPIVTERDIYKIEKEENDVEPYGEKEVRKSNVQKFENRTSRSSKIERPEVRKSNTNDTDFNDIDFNDTENNDMNDLNDIKYKNEISNHSNHSNQFTHNFDDKEMLLQEFPEQLTNYLLKYDYRDLEIIKAVILKAKKSFNSRHEDMHYMLEDIEDEILTSLKRLKKAIHDRGVKGQKETIKSMQAYLMQTILTELEETHALYMRRKNMKQYNIFNQ	soluble
MQPDLHCRTLAAHTLKHFRALSPLTHCMTNDVVQTFTANTLLALGASPAMVIDPVEARPFAAIANALLINVGTLTASRADAMRAAVESAYDAKTPWTLDPVAVGALEFRRRFCLDLLSLRPAAIRGNASEILALSGMALGGRGVDTTEAALAALPAAQALARQIDCIVVVTGEIDYVTNGQRTLSIPGGDPLMTRIVGTGCALSAVVAASCALPGAALDNVASACCWMKLAGQAAAERSEGPGSFIPAFLDALYHLDVEAANATN	not soluble
MQPLERSLTGAVGAALAAAGLRSRSGLEKVVLTGLGAGLIAVAARGQNPLATALKIEQNDEGETVVRDAVTIGKPAEQLYAVWRDLPGLPLLMTHLRSVEVLDDKRSRWTVEAPAPLGTVSWEAELTADEPGKRIAWRSLPGARIENSGEVLFRPAPGARGTEVVVRLTYRPPGGSAGAVIARMFNQEPSQQLRDDLMRFKREQELGLEHHHHHH	not soluble
MQPLPDPKPNTQKEHHPVDRNFIAMIDDLKTTQIPWQKPGHIMTEDEQKMWNATRMREYRRKSNETLEKSKSMLDGLKSQCTVNTVVLKNMLITKSVEDSVKLNAARFLGKSEKELMDIPEIKQMFQQYWNCRKTASNSHYEQRSLIYLDRVVSLQTEYLNYKANRNDSRSPSQLVKKIKDATMKAEAYEFFMDDKRVRKVIGELNEIDSKFKENIGAWLLQQLKIDSSLSHLLST	not soluble
MQPSFRIVADGTDVTQRLNDRLLKLTLLDKPGMESDSLTLRIDDRDGQVALPRRGAVLEVHLGYAGEPLMRMGRFTVDTLQWAGPPDCLTVTAKAGDMRGSGKTIRSGGWEGTTLAQVCRDVGARNGWRVECPLQVAIARVDQVNESDYHFVTRLARQYDCTAKLAEGMLMVLPRQSGQSATGRRIEPLVLGRADVGSFDVTFDDRSLMRTVKTRYQLPGSGEVKSVELKNPKAPATAMGEHVDRHLYTSRGEAEQAAKARLASFSRSSASVRLELPGRGDLFAERSLLLQGFKAGIDGEFLIDSVEHTYSSSGWTTVVQCNGGRGGKG	not soluble
MQPYTAPSEIALRQLDYFADKHVLVAGEVEDRFPIELRQYCASVSVFTTHYGYYSQLKAYPEITRYFGEQLTADLNADLILLYWPKAKQEAEYLLAMLLAKLGTGTEIVVVGENRSGVKSIEKMFAAYGPIHKYDSARRCSFYWGHCVHTPAAFDIEQWFKSYAVDYQGHELTIRSLPGVFSHGEFDLGSRLLLDTLPPLSGKVIDIGSGAGVLGCVMAKLNPHIELEMTDISALAIRSSQETLVANQLHGHVYPSDMFSDTGHHYNYIVTNPPFHSGLETSYSATERLLAESVDHLASGGSIWVVANSFLKYPPILEQAFGHCDIAAKTNKFAIYHAKK	not soluble
MQQANLGDGVATARLLSRSDWGARLPKSVEHFQGPAPYVIIHHSYMPAVCYSTPDCMKSMRDMQDFHQLERGWNDIGYSFGIGGDGMIYTGRGFNVIGAHAPKYNDKSVGIVLIGDWRTELPPKQMLDAAKNLIAFGVFKGYIDPAYKLLGHRQVRDTECPGGRLFAEISSWPHFTHINDTEGVSSTTAPVVPHVHPQAAAPQKPHQSPPAAPKV	soluble
MQQFHIRRLREEDIPLLKGLLVELDTSHYEAEPNFYRSPEEMAQLREERGVFDKYFDDSMIAFIACSHRQVVGFISGTVRDIDSMVSVAKRVGFVNELVVSESHRNLGIGLSLMDKIESDLCNQGIEEIGLTVASFNHEGEDFYHKMGYRVMTKMMSKRVKDLEHHHHHH	soluble
MQRCDWVSQDPLYIAYHDNEWGVPETDSRKLFEMICLEGQQAGLSWITVLKKRENYRACFHQFDPIRIAAMQEEDVERLLQNTGIIRHRGKIQAIISNARAWLAMEQNGESFADFVWSFVDGQPQITQAASLDKIPTSTPASDALAKALKKRGFKFVGTTICYSFMQACGLVNDHITGCFCHPG	soluble
MQRYLWQQADGKRHVYDTARHRVQAGRPFTALCGETVTPQTERGDLTAGLWFDGECPVCTIALAKALGWPVREISDLAHRFDWSPALITRLAEVLHCSFGEVVELTGARMVDA	not soluble
MQRYNSTYVVKRDGRKEDVHFDKITSRIQKLSYGLNMDFVDPVAVAIKVISGLYKGVTTVELDNLAAETAASMTTQHPEYALLAARIAVSNLHKKTNKVFSEVMKTLHEFHHPHTGKHAPMISDETWAIIEKNADKLNSAIVYDRDYSYTYFGFKTLERSYLLKINKEIVERPQQMLMRVSIGIHGDDITSAIETYNLMSERYMTHASPTLFNSGTCRPQMSSCFLLTMSEDSILGIYDTLKQCALISKSAGGIGLNVHKIRATGSVIAGTNGTSNGLIPMLRVYNNTARYVDQGGNKRPGAFAIYLEPWHADIFEFVSLRKNTGPEEERARDLFLALWIPDLFMKRVEKDQEWSLMCPCECPGLDDCWGEEFEALYAKYEAEGRVRKTVKARKLWEHIVSNQIETGLPYITYKDAANRKSNQQNLGTIKCSNLCTEIIEYSAPDEIAVCNLASIALNRYVTPEKKFDFVKLAEVTKVITRNLNKIIDVNYYPVEEARNSNMRHRPIGLGVQGLADCFMLMRYPFTSAEARDLNKRIFETIYYAALEASCELAELNGPYSTYEGSPVSKGQLQFDMWGVTPTDQCDWATLRKKIAKHGIRNSLLMAPMPTASTAQILGNNESIEPYTSNIYSRRVLSGDFQIVNPHMLKDLVERGLWTDEMKNRLIANNGSIQNIDGIPSDIKELYRTVWEISQKDIIEMAADRGAYIDQSQSLNIHMAKPSYAGITSMHFYGWKKGLKTGMYYLRTKPAVNAVQFTVDKNALKTNQQAETPATVAESQDEGCLMCSG	not soluble
MQSEKIAQLKAALQNFSASNSDLFDYALEEEKAKVRKRALLLLDQRARSVYELTNRLISADFDPNIVEYVVEDLVRANLLNDENFSREWVRQRRQRRGKSRQALTRELRDKGIKSEIIADVVGDIQPEDEQDIARELAYKKVRSLKKEPCDYPEYQKVLRRTVGVLARRGFSQSMALEIAREAIDARIDEIRR	not soluble
MQSQRAYELIKAEIFKRLGVNRTDAYKDSYLQRRIRARMRKLGISDYMEYYKILKSNKEEFEELLLTIAINVTEFFRDPIVWKTFQNKILPELVQFKKSKGFRSIKIWSAACSTGQEPYSIAMTLYEVLGENLGGFRVSILATDIDKEALQIAMRGEYPVDAVEKQVPRHMIYKYFDRISEERYRIKPHVKRLVTFRWFNLLSSIYPKGFDVIFIRNVLIYMSKEAQEDIFRKLYDSLEDHGYLILGKTETILGRSANLFKLYDLVAKVYKKNLGVKGNG	soluble
MQSVELPETHQMLLQTCRDFAEKELFPIAAQVDKEHLFPAAQVKKMGGLGLLAMDVPEELGGAGLDYLAYAIAMEEISRGCASTGVIMSVNNSLYLGPILKFGSKEQKQAWVTPFTSGDKIGCFALSEPGNGSDAGAASTTARAEGDSWVLNGTKAWITNAWEASAAVVFASTDRALQNKSISAFLVPMPTPGLTLGKKEDKLGIRGSSTANLIFEDCRIPKDSILGEPGMGFKIAMQTLDMGRIGIASQALGIAQTALDCAVNYAENRMAFGAPLTKLQVIQFKLADMALALESARLLTWRAAMLKDNKKPFIKEAAMAKLAASEAATAISHQAIQILGGMGYVTEMPAERHYRDARITEIYEGTSEIQRLVIAGHLLRSYRSAENLYFQ	soluble
MQSVLNLGKTTVTTCTFLRAASTSLQGKGPLKTNWKENVVYLYQFPRPANRQPNLSPYCLKIETFLRANRIKHEVVGTWLTLRQSPRGLLPFIELNGQQISDSQVIVWKLQKHFDLDDKLEGSDRGTARAVERMIDLSTNYALLVDKTVNNAHLLLARQVSNLPLPSFLTNYLAKGFSQTARKRVNGVLGKLDVAEQKELLRRDIRAIDDILGDKKFLFGDRITSVDCSVFGQIGAVFYLPYRQQISDLLEDDFPRVRAYCDRIRQHYYPEWRDD	not soluble
